In paper PMC3941051:

Target: His-FLAG-Arp5 (not stated (human or rat cDNA cloned)) (UniProt Q9H9F9)
Test: cross-linking

Chain of UniProt Q9H9F9 (Q9H9F9 whole entry): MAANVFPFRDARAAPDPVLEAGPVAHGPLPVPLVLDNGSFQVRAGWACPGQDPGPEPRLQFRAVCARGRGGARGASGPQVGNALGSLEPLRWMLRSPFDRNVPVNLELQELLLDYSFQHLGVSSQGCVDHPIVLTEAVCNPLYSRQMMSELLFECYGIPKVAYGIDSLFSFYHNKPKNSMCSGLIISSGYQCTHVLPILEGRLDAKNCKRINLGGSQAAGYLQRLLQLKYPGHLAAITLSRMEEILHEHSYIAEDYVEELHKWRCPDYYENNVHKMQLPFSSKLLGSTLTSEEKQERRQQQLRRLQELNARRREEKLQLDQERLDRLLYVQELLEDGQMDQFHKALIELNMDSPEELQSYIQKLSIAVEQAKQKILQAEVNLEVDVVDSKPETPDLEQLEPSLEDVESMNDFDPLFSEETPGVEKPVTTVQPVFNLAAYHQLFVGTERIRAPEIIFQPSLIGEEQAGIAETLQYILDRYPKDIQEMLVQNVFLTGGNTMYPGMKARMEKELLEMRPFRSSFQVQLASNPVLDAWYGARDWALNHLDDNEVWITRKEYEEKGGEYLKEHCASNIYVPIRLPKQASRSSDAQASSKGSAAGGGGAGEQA

stoichiometry N: 1
Substance: GFP-fused 32-amino acid Myocd RPEL1 motif peptide (RPEL1-GFP)
